Assay [1] deals with Dsh-GFP (Drosophila Dishevelled) (UniProt P51140). The assay can be described thus: co-immunoprecipitation (IP α-Flag, IB α-GFP), western blot quantification. Conditions: S2 cells, read off a plot.
Assay [2] deals with Myc-Pk (Drosophila Prickle) (UniProt A1Z6W3). The assay can be described thus: co-immunoprecipitation (IP α-Flag, IB α-Myc), western blot quantification. As to conditions: S2 cells; 6 independent replicates; parent: est. 18; read off a plot.
[3] abbreviates: 6–7 replicates, parent: est. 12.

Chain of UniProt P51140 (P51140 whole entry, looked up): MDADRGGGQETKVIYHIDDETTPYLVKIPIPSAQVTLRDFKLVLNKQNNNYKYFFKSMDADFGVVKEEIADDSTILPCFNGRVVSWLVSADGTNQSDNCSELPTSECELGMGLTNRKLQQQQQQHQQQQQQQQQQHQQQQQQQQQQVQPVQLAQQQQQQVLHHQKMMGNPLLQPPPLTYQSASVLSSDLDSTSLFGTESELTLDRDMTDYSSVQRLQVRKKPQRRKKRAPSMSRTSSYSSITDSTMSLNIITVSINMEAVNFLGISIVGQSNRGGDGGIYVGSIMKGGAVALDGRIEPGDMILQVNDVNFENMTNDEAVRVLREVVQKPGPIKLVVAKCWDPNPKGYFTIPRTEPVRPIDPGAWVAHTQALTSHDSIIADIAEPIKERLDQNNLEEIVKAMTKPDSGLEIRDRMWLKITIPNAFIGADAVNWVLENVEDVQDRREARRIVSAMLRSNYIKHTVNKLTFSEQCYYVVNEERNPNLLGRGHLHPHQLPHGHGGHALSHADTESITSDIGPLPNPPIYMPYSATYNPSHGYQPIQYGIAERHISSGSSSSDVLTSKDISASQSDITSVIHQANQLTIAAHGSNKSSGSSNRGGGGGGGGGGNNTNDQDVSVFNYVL
Chain of UniProt A1Z6W3 (A1Z6W3 whole entry, looked up): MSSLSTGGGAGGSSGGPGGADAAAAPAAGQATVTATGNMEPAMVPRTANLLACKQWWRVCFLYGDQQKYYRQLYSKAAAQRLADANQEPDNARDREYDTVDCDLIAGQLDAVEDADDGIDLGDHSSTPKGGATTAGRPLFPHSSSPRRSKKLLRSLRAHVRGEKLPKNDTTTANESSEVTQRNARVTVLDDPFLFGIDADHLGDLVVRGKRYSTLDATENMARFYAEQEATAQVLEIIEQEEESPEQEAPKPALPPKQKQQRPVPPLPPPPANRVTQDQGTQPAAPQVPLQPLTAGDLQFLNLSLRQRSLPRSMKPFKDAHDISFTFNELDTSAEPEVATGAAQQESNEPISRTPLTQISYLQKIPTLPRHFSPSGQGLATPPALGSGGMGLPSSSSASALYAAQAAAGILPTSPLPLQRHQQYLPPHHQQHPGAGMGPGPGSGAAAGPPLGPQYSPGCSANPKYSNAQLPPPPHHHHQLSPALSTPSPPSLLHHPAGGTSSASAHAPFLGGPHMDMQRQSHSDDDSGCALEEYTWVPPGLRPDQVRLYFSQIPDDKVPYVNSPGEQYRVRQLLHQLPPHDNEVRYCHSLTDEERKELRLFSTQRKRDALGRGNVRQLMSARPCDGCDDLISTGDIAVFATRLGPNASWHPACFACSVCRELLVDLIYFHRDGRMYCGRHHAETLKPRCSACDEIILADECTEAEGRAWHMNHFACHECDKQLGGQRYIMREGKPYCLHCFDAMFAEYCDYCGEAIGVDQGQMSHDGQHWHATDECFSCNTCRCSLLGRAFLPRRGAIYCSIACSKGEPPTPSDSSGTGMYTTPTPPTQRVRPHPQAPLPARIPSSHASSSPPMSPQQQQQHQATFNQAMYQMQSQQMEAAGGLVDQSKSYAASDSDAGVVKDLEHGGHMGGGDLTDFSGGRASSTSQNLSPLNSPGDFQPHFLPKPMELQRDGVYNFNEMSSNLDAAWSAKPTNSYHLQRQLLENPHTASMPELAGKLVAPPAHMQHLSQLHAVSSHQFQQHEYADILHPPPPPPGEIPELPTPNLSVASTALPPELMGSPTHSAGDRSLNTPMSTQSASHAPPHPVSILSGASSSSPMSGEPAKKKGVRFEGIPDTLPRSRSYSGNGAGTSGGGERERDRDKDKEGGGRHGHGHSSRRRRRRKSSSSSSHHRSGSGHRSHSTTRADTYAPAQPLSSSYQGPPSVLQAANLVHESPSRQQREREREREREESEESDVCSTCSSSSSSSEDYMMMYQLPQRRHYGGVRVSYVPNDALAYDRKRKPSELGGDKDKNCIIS

In the case of “Vang-Flagx3 (Drosophila Van Gogh, wild type) F371A; K372A; Y374A”, the results for the response in assay [1] (setting [3]) and in assay [2] were 1.6 a.u and 1 a.u, respectively.

On to “Vang-Flagx3 (Drosophila Van Gogh, wild type) V376A”, for which the response in assay [1] (6 replicates, parent: est. 9.6) came to 2.5 a.u.

Turning to “Vang-Flagx3 (Drosophila Van Gogh, wild type) Y374A”, the response in assay [1] (setting [3]) and in assay [2] was 2.5 a.u throughout.

Values taken from paper PMC10381084.
